Data set [1] relates to HeLa Kyoto. In words: thermal stability score vs G1/S (z-score of summed log2 fold changes over temperatures); higher = more thermally stable than in G1/S.
The subject of data set [2] is HeLa Kyoto. Put plainly: solubility in G1/S (NP-40 vs SDS abundance) (log2 ratio); higher = more soluble. To be noted: cell cycle stage: G1/S.
Data set [3] relates to HeLa Kyoto. In words: melting temperature (median over replicates), in situ; higher = more thermally stable.
Data set [4] concerns HeLa Kyoto. In words: solubility change mitosis vs G1/S (difference of NP-40 vs SDS log2 ratios) (log2 ratio difference); higher = more soluble in mitosis.
Where [5] appears, read: cell cycle stage: early G1 (4.5 h after nocodazole release).
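Throughout, for melting temperature (median over replicates), in situ: HeLa Kyoto cells synchronized by double thymidine or nocodazole block, proteins quantified by TMT10plex mass spectrometry, three independent biological replicates.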
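Throughout, for solubility change mitosis vs G1/S (difference of NP-40 vs SDS log2 ratios): synchronized HeLa Kyoto cells (double thymidine block for G1/S, nocodazole release for mitosis), protein amounts in NP-40 versus SDS lysates quantified by mass spectrometry, three biological replicates.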
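Throughout, for solubility in G1/S (NP-40 vs SDS abundance): HeLa Kyoto cells arrested at G1/S by double thymidine block, proteins quantified by TMT10plex mass spectrometry in mild NP-40 versus SDS extracts, three biological replicates.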
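Throughout, for thermal stability score vs G1/S (z-score of summed log2 fold changes over temperatures): synchronized HeLa Kyoto cells, proteins quantified by TMT10plex mass spectrometry, three biological replicates, mitosis taken 0.5 h after nocodazole release, G1/S directly after double thymidine block.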

Regarding “MSNAKERKHAKKMRNQPTNVTLSSGFVADRGVKHHSGGEKPFQAQKQEPHPGTSRQRQTRVNPHSLPDPEVNEQSSSKGMFRKKGGWKAGPEGTSQEIPKYITASTFAQARAAEISAMLKAVTQKSSNSLVFQTLPRHMRRRAMSHNVKRLPRRLQEIAQKEAEKAVHQKKEHSKNKCHKARRCHMNRTLEFNRRQKKNIWLETHIWHAKRFHMVKKWGYCLGERPTVKSHRACYRAMTNRCLLQDLSYYCCLELKGKEEEILKALSGMCNIDTGLTFAAVHCLSGKRQGSLVLYRVNKYPREMLGPVTFIWKSQRTPGDPSESRQLWIWLHPTLKQDILEEIKAACQCVEPIKSAVCIADPLPTPSQEKSQTELPDEKIGKKRKRKDDGENAKPIKKIIGDGTRDPCLPYSWISPTTGIIISDLTMEMNRFRLIGPLSHSILTEAIKAASVHTVGEDTEETPHRWWIETCKKPDSVSLHCRQEAIFELLGGITSPAEIPAGTILGLTVGDPRINLPQKKSKALPNPEKCQDNEKVRQLLLEGVPVECTHSFIWNQDICKSVTENKISDQDLNRMRSELLVPGSQLILGPHESKIPILLIQQPGKVTGEDRLGWGSGWDVLLPKGWGMAFWIPFIYRGVRVGGLKESAVHSQYKRSPNVPGDFPDCPAGMLFAEEQAKNLLEKYKRRPPAKRPNYVKLGTLAPFCCPWEQLTQDWESRVQAYEEPSVASSPNGKESDLRRSEVPCAPMPKKTHQPSDEVGTSIEHPREAEEVMDAGCQESAGPERITDQEASENHVAATGSHLCVLRSRKLLKQLSAWCGPSSEDSRGGRRAPGRGQQGLTREACLSILGHFPRALVWVSLSLLSKGSPEPHTMICVPAKEDFLQLHEDWHYCGPQESKHSDPFRSKILKQKEKKKREKRQKPGRASSDGPAGEEPVAGQEALTLGLWSGPLPRVTLHCSRTLLGFVTQGDFSMAVGCGEALGFVSLTGLLDMLSSQPAAQRGLVLLRPPASLQYRFARIAIEV [POP1]”, the thermal stability score in data set [1] (setting [5]) is 1.22; in data set [1] (cell cycle stage: mitosis), -1.05. The “solubility in G1/S (log2)” value in data set [2] was -0.778. Also, the melting temperature turned out to be 52.2 °C in data set [3] (cell cycle stage: G1/S) and 51.8 °C in data set [3] (cell cycle stage: mitosis). Moreover, in data set [4], the “solubility change mitosis (log2)” value stood at 0.246.

For the sequence “MVGSALRRGAHAYVYLVSKASHISRGHQHQAWGSRPPAAECATQRAPGSVVELLGKSYPQDDHSNLTRKVLTRVGRNLHNQQHHPLWLIKERVKEHFYKQYVGRFGTPLFSVYDNLSPVVTTWQNFDSLLIPADHPSRKKGDNYYLNRTHMLRAHTSAHQWDLLHAGLDAFLVVGDVYRRDQIDSQHYPIFHQLEAVRLFSKHELFAGIKDGESLQLFEQSSRSAHKQETHTMEAVKLVEFDLKQTLTRLMAHLFGDELEIRWVDCYFPFTHPSFEMEINFHGEWLEVLGCGVMEQQLVNSAGAQDRIGWAFGLGLERLAMILYDIPDIRLFWCEDERFLKQFCVSNINQKVKFQPLSKYPAVINDISFWLPSENYAENDFYDLVRTIGGDLVEKVDLIDKFVHPKTHKTSHCYRITYRHMERTLSQREVRHIHQALQEAAVQLLGVEGRF [FARS2]”, the values for the thermal stability score in data set [1] (setting [5]) and in data set [1] (cell cycle stage: mitosis) were 0.911 and 1.74, respectively. Besides, in data set [2], the “solubility in G1/S (log2)” value is -0.187. The melting temperature amounted to 49.7 °C in data set [3] (cell cycle stage: G1/S) and 49.5 °C in data set [3] (cell cycle stage: mitosis). Moreover, in data set [4], the “solubility change mitosis (log2)” value was -0.0528.

“MASTNAESQLQRIIRDLQDAVTELSKEFQEAGEPITDDSTSLHKFSYKLEYLLQFDQKEKATLLGNKKDYWDYFCACLAKVKGANDGIRFVKSISELRTSLGKGRAFIRYSLVHQRLADTLQQCFMNTKVTSDWYYARSPFLQPKLSSDIVGQLYELTEVQFDLASRGFDLDAAWPTFARRTLTTGSSAYLWKPPSRSSSMSSLVSSYLQTQEMVSNFDLNSPLNNEALEGFDEMRLELDQLEVREKQLRERMQQLDRENQELRAAVSQQGEQLQTERERGRTAAEDNVRLTCLVAELQKQWEVTQATQNTVKELQTCLQGLELGAAEKEEDYHTALRRLESMLQPLAQELEATRDSLDKKNQHLASFPGWLAMAQQKADTASDTKGRQEPIPSDAAQEMQELGEKLQALERERTKVEEVNRQQSAQLEQLVKELQLKEDARASLERLVKEMAPLQEELSGKGQEADQLWRRLQELLAHTSSWEEELAELRREKKQQQEEKELLEQEVRSLTRQLQFLETQLAQVSQHVSDLEEQKKQLIQDKDHLSQQVGMLERLAGPPGPELPVAGEKNEALVPVNSSLQEAWGKPEEEQRGLQEAQLDDTKVQEGSQEEELRQANRELEKELQNVVGRNQLLEGKLQALQADYQALQQRESAIQGSLASLEAEQASIRHLGDQMEASLLAVRKAKEAMKAQMAEKEAILQSKEGECQQLREEVEQCQQLAEARHRELRALESQCQQQTQLIEVLTAEKGQQGVGPPTDNEARELAAQLALSQAQLEVHQGEVQRLQAQVVDLQAKMRAALDDQDKVQSQLSMAEAVLREHKTLVQQLKEQNEALNRAHVQELLQCSEREGALQEERADEAQQREEELRALQEELSQAKCSSEEAQLEHAELQEQLHRANTDTAELGIQVCALTVEKERVEEALACAVQELQDAKEAASREREGLERQVAGLQQEKESLQEKLKAAKAAAGSLPGLQAQLAQAEQRAQSLQEAAHQELNTLKFQLSAEIMDYQSRLKNAGEECKSLRGQLEEQGRQLQAAEEAVEKLKATQADMGEKLSCTSNHLAECQAAMLRKDKEGAALREDLERTQKELEKATTKIQEYYNKLCQEVTNRERNDQKMLADLDDLNRTKKYLEERLIELLRDKDALWQKSDALEFQQKLSAEERWLGDTEANHCLDCKREFSWMVRRHHCRICGRIFCYYCCNNYVLSKHGGKKERCCRACFQKLSEGPGSPDSSGSGTSQGEPSPALSPASPGPQATGGQGANTDYRPPDDAVFDIITDEELCQIQESGSSLPETPTETDSLDPNAAEQDTTSTSLTPEDTEDMPVGQDSEICLLKSGELMIKVPLTVDEIASFGEGSRELFVRSSTYSLIPITVAEAGLTISWVFSSDPKSISFSVVFQEAEDTPLDQCKVLIPTTRCNSHKENIQGQLKVRTPGIYMLIFDNTFSRFVSKKVFYHLTVDRPVIYDGSDFL [FYCO1]”: the thermal stability score in data set [1] (setting [5]) was -0.119; in data set [1] (cell cycle stage: mitosis) it was 0.0455. Further, the “solubility in G1/S (log2)” value in data set [2] turned out to be 0.0536. Also, the figures for the melting temperature in data set [3] (cell cycle stage: G1/S) and in data set [3] (cell cycle stage: mitosis) were 51.3 °C and 51 °C, respectively. Further, the “solubility change mitosis (log2)” value in data set [4] was -0.142.

Turning to “MGSPEGRFHFAIDRGGTFTDVFAQCPGGHVRVLKLLSEDPANYADAPTEGIRRILEQEAGMLLPRDQPLDSSHIASIRMGTTVATNALLERKGERVALLVTRGFRDLLHIGTQARGDLFDLAVPMPEVLYEEVLEVDERVVLHRGEAGTGTPVKGRTGDLLEVQQPVDLGALRGKLEGLLSRGIRSLAVVLMHSYTWAQHEQQVGVLARELGFTHVSLSSEAMPMVRIVPRGHTACADAYLTPAIQRYVQGFCRGFQGQLKDVQVLFMRSDGGLAPMDTFSGSSAVLSGPAGGVVGYSATTYQQEGGQPVIGFDMGGTSTDVSRYAGEFEHVFEASTAGVTLQAPQLDINTVAAGGGSRLFFRSGLFVVGPESAGAHPGPACYRKGGPVTVTDANLVLGRLLPASFPCIFGPGENQPLSPEASRKALEAVATEVNSFLTNGPCPASPLSLEEVAMGFVRVANEAMCRPIRALTQARGHDPSAHVLACFGGAGGQHACAIARALGMDTVHIHRHSGLLSALGLALADVVHEAQEPCSLLYAPETFVQLDQRLSRLEEQCVDALQAQGFPRSQISTESFLHLRYQGTDCALMVSAHQHPATARSPRAGDFGAAFVERYMREFGFVIPERPVVVDDVRVRGTGRSGLRLEDAPKAQTGPPRVDKMTQCYFEGGYQETPVYLLAELGYGHKLHGPCLIIDSNSTILVEPGCQAEVTKTGDICISVGAEVPGTVGPQLDPIQLSIFSHRFMSIAEQMGRILQRTAISTNIKERLDFSCALFGPDGGLVSNAPHIPVHLGAMQETVQFQIQHLGADLHPGDVLLSNHPSAGGSHLPDLTVITPVFWPGQTRPVFYVASRGHHADIGGITPGSMPPHSTMLQQEGAVFLSFKLVQGGVFQEEAVTEALRAPGKVPNCSGTRNLHDNLSDLRAQVAANQKGIQLVGELIGQYGLDVVQAYMGHIQANAELAVRDMLRAFGTSRQARGLPLEVSSEDHMDDGSPIRLRVQISLSQGSAVFDFSGTGPEVFGNLNAPRAVTLSALIYCLRCLVGRDIPLNQGCLAPVRVVIPRGSILDPSPEAAVVGGNVLTSQRVVDVILGAFGACAASQGCMNNVTLGNAHMGYYETVAGGAGAGPSWHGRSGVHSHMTNTRITDPEILESRYPVILRRFELRRGSGGRGRFRGGDGVTRELLFREEALLSVLTERRAFRPYGLHGGEPGARGLNLLIRKNGRTVNLGGKTSVTVYPGDVFCLHTPGGGGYGDPEDPAPPPGSPPQALAFPEHGSVYEYRRAQEAV [OPLAH]”, the thermal stability score in data set [1] (setting [5]) was -0.162; in data set [1] (cell cycle stage: mitosis), -0.669. Also, in data set [2], the “solubility in G1/S (log2)” value turned out to be 0.0511. Also, the melting temperature is 51.1 °C in data set [3] (cell cycle stage: G1/S) and 51.3 °C in data set [3] (cell cycle stage: mitosis). Also, the “solubility change mitosis (log2)” value in data set [4] was -0.171.

For the origin of these results see the supplement of paper PMC5998384.
